In patent US20260201064A1 (ISU ABXIS, published 2026):
Where two headings read alike, the source gives them in different places.

T1: recombinant human ASM protein (human, UniProt P17405 47-630)
T1 construct: Recombinant human ASM in solution; also called acid sphingomyelinase (ASM) protein
T1 sequence: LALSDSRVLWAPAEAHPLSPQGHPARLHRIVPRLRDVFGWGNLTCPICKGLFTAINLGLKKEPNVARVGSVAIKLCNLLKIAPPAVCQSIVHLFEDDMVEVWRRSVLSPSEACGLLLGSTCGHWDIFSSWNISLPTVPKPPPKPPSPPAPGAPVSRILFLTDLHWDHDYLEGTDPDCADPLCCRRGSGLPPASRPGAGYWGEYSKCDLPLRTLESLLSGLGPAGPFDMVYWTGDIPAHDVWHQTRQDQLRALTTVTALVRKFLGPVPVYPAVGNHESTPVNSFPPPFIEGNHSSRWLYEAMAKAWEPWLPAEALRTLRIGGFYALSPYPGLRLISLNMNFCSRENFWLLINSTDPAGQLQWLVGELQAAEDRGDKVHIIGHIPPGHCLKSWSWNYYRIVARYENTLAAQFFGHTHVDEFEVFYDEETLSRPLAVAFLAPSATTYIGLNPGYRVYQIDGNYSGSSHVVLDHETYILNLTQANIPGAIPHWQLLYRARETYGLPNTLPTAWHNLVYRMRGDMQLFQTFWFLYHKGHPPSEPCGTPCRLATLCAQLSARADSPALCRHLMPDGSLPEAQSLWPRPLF


What was measured:
Test in all cases: BLI (Octet), antibody on AHC sensor
[1] = molecular target: T1, recombinant human ASM protein
Procedure: (§1) The binding affinity, to the ASM protein, of the produced antibodies specifically binding to the ASM protein and the interactive dynamics therebetween were measured using an Octet® QK384 system (Pall Life Sciences).
(§2) First, an antibody specifically binding to the ASM protein produced in Example 1 was captured using an anti-human IgG Fc capture (AHC) biosensor, and 1.25, 2.5, 5, 10, or 20 nM recombinant human ASM protein solution was added thereto. […] The association constant (Kₐ), dissociation constant (Kd), and equilibrium dissociation constant (KD) for each antibody were determined using Octet® analysis software (Pall Life® Sciences). As a result, the binding affinities, to the human ASM protein, of the antibodies with mutations in the heavy chain CDR regions of the antibody #9104 as depicted in Table 1 are shown in Table 5, and the binding affinities, to the human ASM protein, of the antibodies with mutations of the light chain CDR regions in the antibody #9104 as depicted in Table 2 are shown in Table 6.

[2] = molecular target: T1, recombinant human ASM protein; remark: listed apart in the source
Procedure: as §1, §2

[3] = molecular target: T1, recombinant human ASM protein; remark: listed apart in the source

Binder | Kd [1] | koff [1] | kon [1] | Kd [2] | koff [2] | kon [2] | Kd [3] | koff [3] | kon [3]
#9104 (antibody, V domains shown, Parental antibody; also called antibody #9104) VH: EVQLLESGGGLVQPGGSLRLSCAASGFTFSNYYMSWVRQAPGKGLEWVSGIYYGSGNIYYADSVKGRFTISRDNSKNTLYLQMNSLRAEDTAVYYCARDTPGFDYWGQGTLVTVSS VL: QSVLTQPPSASGTPGQRVTISCTGSSSNIGNNAVNWYQQLPGTAPKLLIYYDSHRPSGVPDRFSGSKSGTSASLAISGLRSEDEADYYCGAWDYSLSAYVFGGGTKLTVLG | 2.25 nM | 0.000873 s⁻¹ | 389000 M⁻¹ s⁻¹ | 2.25 nM | 0.000873 s⁻¹ | 389000 M⁻¹ s⁻¹ | 2.19 nM | 0.000855 s⁻¹ | 391000 M⁻¹ s⁻¹
#9104v-H26 (antibody, human IgG4 S228P, lambda, V domains shown, Full-length IgG, lambda) VH: EVQLLESGGGLVQPGGSLRLSCAASGFTFSNYYMSWVRQAPGKGLEWVSGTYYASGNAYYADSVKGRFTISRDNSKNTLYLQMNSLRAEDTAVYYCARDTPGFDYWGQGTLVTVSS VL: QSVLTQPPSASGTPGQRVTISCTGSSSNIGNNAVNWYQQLPGTAPKLLIYYDSHRPSGVPDRFSGSKSGTSASLAISGLRSEDEADYYCGAWDYSLSAYVFGGGTKLTVLG |  |  |  | 1.74 nM | 0.000305 s⁻¹ | 175000 M⁻¹ s⁻¹ |  |  | 
#9104v-H31 (antibody, human IgG4 S228P, lambda, V domains shown, Full-length IgG, lambda) VH: EVQLLESGGGLVQPGGSLRLSCAASGFTFSNYYMSWVRQAPGKGLEWVSGVYYGSGTPYYADSVKGRFTISRDNSKNTLYLQMNSLRAEDTAVYYCARDTPGFDYWGQGTLVTVSS VL: QSVLTQPPSASGTPGQRVTISCTGSSSNIGNNAVNWYQQLPGTAPKLLIYYDSHRPSGVPDRFSGSKSGTSASLAISGLRSEDEADYYCGAWDYSLSAYVFGGGTKLTVLG |  |  |  | 0.532 nM | 0.000141 s⁻¹ | 266000 M⁻¹ s⁻¹ |  |  | 
#9104v-H33 (antibody, human IgG4 S228P, lambda, V domains shown, Full-length IgG, lambda) VH: EVQLLESGGGLVQPGGSLRLSCAASGFTFSNYYMSWVRQAPGKGLEWVSGVYYPSGNPYYADSVKGRFTISRDNSKNTLYLQMNSLRAEDTAVYYCARDTPGFDYWGQGTLVTVSS VL: QSVLTQPPSASGTPGQRVTISCTGSSSNIGNNAVNWYQQLPGTAPKLLIYYDSHRPSGVPDRFSGSKSGTSASLAISGLRSEDEADYYCGAWDYSLSAYVFGGGTKLTVLG |  |  |  | 0.517 nM | 0.000108 s⁻¹ | 208000 M⁻¹ s⁻¹ |  |  | 
#9104v-H27 (antibody, human IgG4 S228P, lambda, V domains shown, Full-length IgG, lambda) VH: EVQLLESGGGLVQPGGSLRLSCAASGFTFSNYYMSWVRQAPGKGLEWVSGTYYDSGYVYYADSVKGRFTISRDNSKNTLYLQMNSLRAEDTAVYYCARDTPGFDYWGQGTLVTVSS VL: QSVLTQPPSASGTPGQRVTISCTGSSSNIGNNAVNWYQQLPGTAPKLLIYYDSHRPSGVPDRFSGSKSGTSASLAISGLRSEDEADYYCGAWDYSLSAYVFGGGTKLTVLG |  |  |  | 0.598 nM | 0.000165 s⁻¹ | 276000 M⁻¹ s⁻¹ |  |  | 
#9104v-H30 (antibody, human IgG4 S228P, lambda, V domains shown, Full-length IgG, lambda) VH: EVQLLESGGGLVQPGGSLRLSCAASGFTFSNYYMSWVRQAPGKGLEWVSGTYYSSGGIYYADSVKGRFTISRDNSKNTLYLQMNSLRAEDTAVYYCARDTPGFDYWGQGTLVTVSS VL: QSVLTQPPSASGTPGQRVTISCTGSSSNIGNNAVNWYQQLPGTAPKLLIYYDSHRPSGVPDRFSGSKSGTSASLAISGLRSEDEADYYCGAWDYSLSAYVFGGGTKLTVLG |  |  |  | 0.762 nM | 0.000151 s⁻¹ | 199000 M⁻¹ s⁻¹ |  |  | 
